Laboratory results as given in paper PMC3765907, “S-Nitrosylation of parkin as a novel regulator of p53-mediated neuronal cell death in sporadic Parkinson’s disease”.

Target: parkin (wild-type, GST-tagged) (UniProt O60260 1-465)
Assay: EMSA; parkin 100 nM to 1 uM, 0.1 nM probe; shift increases with parkin; 1x binding buffer (Panomics), room temperature, 20 min; 0.1 nM biotin probe, 1 uM parkin (100 nM-1 uM titration); 6% PAGE in 0.5x TBE pH 8.3; salt not stated
Conditions: protein: recombinant; tags: GST; label: 5' biotin; blunt

Chain of parkin (wild-type, GST-tagged) (O60260 whole entry): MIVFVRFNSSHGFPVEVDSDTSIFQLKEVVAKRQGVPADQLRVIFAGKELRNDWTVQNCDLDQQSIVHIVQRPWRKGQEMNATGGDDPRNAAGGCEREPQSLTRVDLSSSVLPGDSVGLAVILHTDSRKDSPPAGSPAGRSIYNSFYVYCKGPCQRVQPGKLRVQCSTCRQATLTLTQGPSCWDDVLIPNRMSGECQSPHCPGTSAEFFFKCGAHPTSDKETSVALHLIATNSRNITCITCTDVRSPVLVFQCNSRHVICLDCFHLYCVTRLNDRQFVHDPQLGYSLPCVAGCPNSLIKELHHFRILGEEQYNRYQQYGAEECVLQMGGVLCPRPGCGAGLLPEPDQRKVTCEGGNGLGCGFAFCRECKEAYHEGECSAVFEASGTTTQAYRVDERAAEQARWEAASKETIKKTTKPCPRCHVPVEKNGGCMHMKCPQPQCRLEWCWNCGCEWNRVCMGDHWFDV

B1: Pp53 (human p53 promoter probe) (dsDNA)
DNA 1: GGCACCAGGTCGGCGAGAATCCTGACTCTGCACCCTCCTCCCCAACTCCATTTCCTTTGCTTCCTCCGGC
DNA 2: GCCGGAGGAAGCAAAGGAAATGGAGTTGGGGAGGAGGGTGCAGAGTCAGGATTCTCGCCGACCTGGTGCC
Does B1 bind?
Result: binds
